In assay [1] the target is KLB (β-klotho) on KLB only expressing cells (UniProt Q86Z14). The assay is described as follows: cell-based or functional assay.
Assay [2] deals with KLB/FGFR4 on KLB/FGFR4 expressing cells (UniProt Q86Z14). The assay is described as follows: cell-based or functional assay.

Bounds are passed on as bounds.

Chain of KLB (β-klotho) on KLB only expressing cells (Q86Z14 whole entry): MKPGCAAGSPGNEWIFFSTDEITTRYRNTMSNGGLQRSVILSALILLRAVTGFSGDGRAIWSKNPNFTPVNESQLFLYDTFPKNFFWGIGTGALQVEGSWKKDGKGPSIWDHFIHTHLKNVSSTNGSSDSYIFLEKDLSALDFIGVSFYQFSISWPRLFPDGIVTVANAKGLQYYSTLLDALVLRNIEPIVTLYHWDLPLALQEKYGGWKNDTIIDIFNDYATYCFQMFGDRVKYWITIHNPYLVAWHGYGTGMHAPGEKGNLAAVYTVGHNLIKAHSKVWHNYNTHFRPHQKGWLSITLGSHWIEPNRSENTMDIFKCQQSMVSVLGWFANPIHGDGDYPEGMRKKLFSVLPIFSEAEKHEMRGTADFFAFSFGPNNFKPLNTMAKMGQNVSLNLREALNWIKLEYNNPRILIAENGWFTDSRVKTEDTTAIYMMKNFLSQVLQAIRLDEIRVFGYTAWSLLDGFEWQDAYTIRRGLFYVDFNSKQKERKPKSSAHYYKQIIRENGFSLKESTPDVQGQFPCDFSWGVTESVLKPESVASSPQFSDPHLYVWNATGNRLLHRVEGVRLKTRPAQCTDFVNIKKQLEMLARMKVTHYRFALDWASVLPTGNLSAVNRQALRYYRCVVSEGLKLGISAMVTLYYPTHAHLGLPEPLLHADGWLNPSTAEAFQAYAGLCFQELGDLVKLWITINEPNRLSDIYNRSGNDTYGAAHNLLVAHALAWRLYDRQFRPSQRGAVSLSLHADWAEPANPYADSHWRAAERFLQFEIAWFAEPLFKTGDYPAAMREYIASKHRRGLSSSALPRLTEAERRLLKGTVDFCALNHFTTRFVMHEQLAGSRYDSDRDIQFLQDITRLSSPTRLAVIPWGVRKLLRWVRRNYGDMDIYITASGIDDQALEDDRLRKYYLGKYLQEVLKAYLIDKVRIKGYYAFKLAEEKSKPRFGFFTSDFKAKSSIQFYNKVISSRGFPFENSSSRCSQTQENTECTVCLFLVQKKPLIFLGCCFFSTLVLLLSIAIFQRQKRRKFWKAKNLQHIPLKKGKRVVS
Chain of KLB/FGFR4 on KLB/FGFR4 expressing cells (Q86Z14 whole entry, chain 1 of 2): as the sequence (Q86Z14 whole entry) above
Chain of KLB/FGFR4 on KLB/FGFR4 expressing cells (P22455 22-802 limits assumed, chain 2 of 2, further chain): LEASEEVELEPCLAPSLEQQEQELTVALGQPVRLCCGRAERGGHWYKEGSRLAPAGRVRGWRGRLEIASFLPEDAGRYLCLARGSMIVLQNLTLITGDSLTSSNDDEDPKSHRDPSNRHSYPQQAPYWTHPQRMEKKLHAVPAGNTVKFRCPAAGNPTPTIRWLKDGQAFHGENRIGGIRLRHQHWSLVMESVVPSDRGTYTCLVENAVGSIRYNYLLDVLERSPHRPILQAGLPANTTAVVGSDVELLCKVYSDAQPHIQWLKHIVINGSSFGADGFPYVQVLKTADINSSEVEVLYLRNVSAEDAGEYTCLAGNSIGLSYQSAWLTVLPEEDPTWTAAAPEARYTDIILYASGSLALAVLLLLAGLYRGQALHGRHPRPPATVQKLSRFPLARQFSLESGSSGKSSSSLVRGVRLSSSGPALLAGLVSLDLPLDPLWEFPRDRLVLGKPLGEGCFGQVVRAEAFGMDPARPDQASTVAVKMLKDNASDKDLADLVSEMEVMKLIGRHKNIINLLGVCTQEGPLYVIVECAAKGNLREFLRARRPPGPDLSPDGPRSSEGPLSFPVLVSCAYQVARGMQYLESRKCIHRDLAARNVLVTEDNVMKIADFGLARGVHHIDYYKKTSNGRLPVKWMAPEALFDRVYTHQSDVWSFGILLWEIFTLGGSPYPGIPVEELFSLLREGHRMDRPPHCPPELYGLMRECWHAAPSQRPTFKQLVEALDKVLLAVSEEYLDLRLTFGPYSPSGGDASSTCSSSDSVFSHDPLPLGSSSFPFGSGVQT

“FGF-19 (from UniProt O95750 25-216) (ligand)”: in assay [1], the pERK functional assay, fold increase of pERK at 3000 nM turned out to be 2 fold. In the case of “FGF-21 (native / wild type human Fibroblast Growth Factor-21) (from UniProt Q9NSA1 29-209) (ligand)”, the pERK functional assay, fold increase of pERK at 3000 nM in assay [1] was determined as 2 fold. For the same substance, in assay [2], the pERK functional assay, fold increase in pERK at 3000 nM is under 2 fold. In turn, “Mutant FGF21-GalNAc-SA-PEG-20 kDa (BIO89-100) (from UniProt Q9NSA1 29-209) (ligand)” yielded a pERK functional assay, fold increase in pERK at 3000 nM in assay [2] of under 2 fold.

The values are drawn from patent US20260201005A1.
